What is called EC50 (read off the curve) is the concentration at which the effect is half-maximal. A low value points to greater potency. The term Kd denotes the concentration at which binding is half-saturated. A higher Kd goes with a looser complex.

The values that follow come from patent US20240285753A1 (DUKE UNIVERSITY, published 2024).

One test concerns the target T1, S2hlx-Ex15 F1148A.
T1 epitope scaffold: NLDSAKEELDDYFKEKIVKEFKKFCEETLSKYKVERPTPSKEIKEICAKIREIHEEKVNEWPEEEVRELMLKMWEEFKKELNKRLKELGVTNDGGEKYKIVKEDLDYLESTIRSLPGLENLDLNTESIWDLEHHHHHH
Kind of test: ELISA; antigen coated, mAb titrated.

Test [1] has as its target T2, S2hlx-1.
T2 epitope scaffold: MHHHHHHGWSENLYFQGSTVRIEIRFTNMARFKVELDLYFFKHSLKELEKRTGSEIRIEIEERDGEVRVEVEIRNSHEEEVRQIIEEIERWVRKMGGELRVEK
Description: SPR, mAb captured, antigen as analyte.

The target of test [2] is T3, S2hlx-13.
T3 epitope scaffold: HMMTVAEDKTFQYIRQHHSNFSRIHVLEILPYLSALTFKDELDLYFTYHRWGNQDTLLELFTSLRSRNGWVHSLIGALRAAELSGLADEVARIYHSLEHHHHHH
Kind of test: SPR, mAb captured, antigen as analyte.

Test [3] deals with S2hlx-14. Description: SPR, mAb captured, antigen as analyte. (In general: In SPR one partner is held on a chip, and binding of the other changes the refractive index at the surface.)
Test [4] has as its target T4, S2hlx-8.
T4 epitope scaffold: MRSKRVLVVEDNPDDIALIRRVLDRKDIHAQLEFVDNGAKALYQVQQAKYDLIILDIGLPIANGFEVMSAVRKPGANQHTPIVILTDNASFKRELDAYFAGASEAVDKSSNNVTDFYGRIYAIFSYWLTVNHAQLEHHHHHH
Description: SPR, mAb captured, antigen as analyte.

The target of another test is T5, S2hlx-Ex37.
T5 chain: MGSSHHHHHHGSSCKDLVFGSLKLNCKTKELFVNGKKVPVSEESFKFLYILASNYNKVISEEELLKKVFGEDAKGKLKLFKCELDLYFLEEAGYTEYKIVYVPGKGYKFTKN
Kind of test: SPR, mAb captured, scaffold as analyte.

The target of a further test is T6, S2hlx-Ex25.
T6 chain: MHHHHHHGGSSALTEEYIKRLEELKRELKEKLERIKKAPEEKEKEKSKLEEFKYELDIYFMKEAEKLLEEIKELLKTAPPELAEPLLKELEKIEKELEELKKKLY
Description: SPR, mAb captured, scaffold as analyte.

The next test has as its target T7, S2hlx-Ex54.
T7 chain: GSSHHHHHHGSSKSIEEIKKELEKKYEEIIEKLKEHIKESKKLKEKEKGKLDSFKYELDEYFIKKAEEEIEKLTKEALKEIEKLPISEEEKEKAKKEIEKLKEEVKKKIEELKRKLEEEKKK
Kind of test: SPR, mAb captured, scaffold as analyte.

For the next test, the target named is T8, S2hlx-Ex34.
T8 chain: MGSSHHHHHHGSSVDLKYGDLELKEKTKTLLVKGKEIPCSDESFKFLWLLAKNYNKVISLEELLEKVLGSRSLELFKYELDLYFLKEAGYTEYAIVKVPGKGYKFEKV
Kind of test: SPR, mAb captured, scaffold as analyte.

The target in the next test is T9, S2hlx-15.
T9 chain: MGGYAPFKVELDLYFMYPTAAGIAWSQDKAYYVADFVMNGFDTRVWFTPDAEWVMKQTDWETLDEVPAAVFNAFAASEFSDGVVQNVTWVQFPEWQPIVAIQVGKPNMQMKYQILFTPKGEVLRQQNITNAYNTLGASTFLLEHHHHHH
Kind of test: SPR, mAb captured, scaffold as analyte.

The target in a further test is T10, S2hlx-Ex8-Trx.
T10 chain: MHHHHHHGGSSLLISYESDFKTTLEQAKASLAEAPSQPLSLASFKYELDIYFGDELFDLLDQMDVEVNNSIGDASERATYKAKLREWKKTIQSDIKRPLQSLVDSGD
Kind of test: SPR, mAb captured, scaffold as analyte.

For another test, the target named is CC19 LA. Description: ELISA, coated antigen, mAb titrated.
The target in test [5] is T2, S2hlx-1. Description: SPR, mAb captured, antigen as analyte.
The target of test [6] is T3, S2hlx-13. Description: SPR, mAb captured, antigen as analyte.
For test [7], the target named is S2hlx-14. Kind of test: SPR, mAb captured, antigen as analyte. This is another data set of the same source.
The next test concerns the target S2hlx-4. Kind of test: SPR, mAb captured, antigen as analyte.
Test [8] concerns the target T4, S2hlx-8. Kind of test: SPR, mAb captured, antigen as analyte.

Where two headings read alike, the source gives them in different places.

Sequence of S2hlx-4 (chain, as listed by the source): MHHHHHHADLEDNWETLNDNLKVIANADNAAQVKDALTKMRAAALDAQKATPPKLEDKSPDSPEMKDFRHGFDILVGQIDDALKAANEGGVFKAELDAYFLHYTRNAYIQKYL

B1: S2P6 mAb (antibody, V domains shown)
VH: EVQLVQSGAEVKKPGASVKVSCKASGYTFTSQYMHWVRQAPGQGLEWIGIINPSGVHTSYAQKFQGRVTLTRDTSTSTLYMELSSLRSEDTAVYYCARGSPKGAFDYWGQGTLVTVSS
VL: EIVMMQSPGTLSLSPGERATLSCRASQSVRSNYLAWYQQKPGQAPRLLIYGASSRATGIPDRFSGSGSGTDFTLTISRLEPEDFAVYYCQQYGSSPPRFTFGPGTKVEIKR
As to B1, the “EC50 (read off the curve)” value with S2hlx-Ex15 F1148A was ~0.07 µg/mL; in the test with CC19 LA it was ~0.02 µg/mL. The Kd with S2hlx-1 [1] was found to be 52.8 nM; with S2hlx-13 [2] it was 83 nM; with S2hlx-14 [3], 30 nM; with S2hlx-8 [4], 63 nM; with S2hlx-Ex37, 664 nM; with S2hlx-Ex25 it was 612 nM. Besides, the Kd in the test with S2hlx-Ex54 stood at 45 nM; in the test with S2hlx-Ex34, 82 nM; in the test with S2hlx-15 it was 0.7 nM; with S2hlx-Ex8-Trx it was 330 nM; with S2hlx-1 [5], 52.8 nM; with S2hlx-13 [6], 83 nM. The dissociation constant (Kd) in the test with S2hlx-14 [7] came to 30 nM; in the test with S2hlx-4, 47.7 nM; with S2hlx-8 [8], 63 nM.
